Results from patent US20110158908A1, “CYCLOSPORIN A-BINDING PROTEIN” (Sapporo Medical University, priority 2007, published 2011).

Molecular target: recombinant CSABP protein (CSABP-FL) (human) (UniProt Q9H6S0)
Experiment: SPR, Biacore 3000; recombinant CSABP-FL immobilized on CM5 chip by amine coupling, CsA in PBS-8% DMSO as analyte

cyclosporin A (CsA) (peptide)
Kd: 120 nM
